The record followed here is article PMC6852375 (The Febs Journal, 2019).

T1: Murine OPG-Fc (mouse, UniProt O08712 22-401)
T1 sequence (looked up): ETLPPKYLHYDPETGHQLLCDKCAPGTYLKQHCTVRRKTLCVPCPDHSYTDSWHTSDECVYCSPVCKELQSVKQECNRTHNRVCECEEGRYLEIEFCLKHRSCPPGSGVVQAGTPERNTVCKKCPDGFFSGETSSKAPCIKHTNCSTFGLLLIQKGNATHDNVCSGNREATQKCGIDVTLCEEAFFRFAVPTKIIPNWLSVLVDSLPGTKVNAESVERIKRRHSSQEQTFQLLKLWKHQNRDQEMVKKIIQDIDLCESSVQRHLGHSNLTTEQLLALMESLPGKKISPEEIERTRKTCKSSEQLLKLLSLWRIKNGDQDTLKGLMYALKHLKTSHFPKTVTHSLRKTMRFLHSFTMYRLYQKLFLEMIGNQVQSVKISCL

T2: Murine RANK-Fc (mouse, UniProt O35305 31-214)
T2 sequence (looked up): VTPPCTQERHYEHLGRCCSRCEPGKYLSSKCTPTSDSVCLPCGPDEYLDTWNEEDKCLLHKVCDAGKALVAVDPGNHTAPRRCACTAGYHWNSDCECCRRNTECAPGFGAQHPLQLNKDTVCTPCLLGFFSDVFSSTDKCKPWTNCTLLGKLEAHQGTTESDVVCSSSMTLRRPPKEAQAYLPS

B1: RANKL_WT (mouse soluble RANKL, aa 160–316) (ligand, UniProt O35235 160-316, looked up)
chain: EAQPFAHLTINAASIPSGSHKVTLSSWYHDRGWAKISNMTLSNGKLRVNQDGFYYLYANICFRHHETSGSVPTDYLQLMVYVVKTSIKIPSSHNLMKGGSTKNWSGNSEFHFYSINVGGFFKLRAGEEISIQVSNPSLLDPDQDATYFGAFKVQDID
B2: RANKL_Q236K (ligand, mouse, UniProt O35235 160-316, looked up)
chain: B1 chain with Q77K
B3: RANKL_Q236P (ligand, mouse, UniProt O35235 160-316, looked up)
chain: B1 chain with Q77P
B4: RANKL_Q236S (ligand, mouse, UniProt O35235 160-316, looked up)
chain: B1 chain with Q77S
B5: RANKL_Q236A (ligand, mouse, UniProt O35235 160-316, looked up)
chain: B1 chain with Q77A
B6: RANKL_Q236D (ligand, mouse, UniProt O35235 160-316, looked up)
chain: B1 chain with Q77D
B7: RANKL_Q236N (ligand, mouse, UniProt O35235 160-316, looked up)
chain: B1 chain with Q77N
B8: RANKL_Q236H (ligand, mouse, UniProt O35235 160-316, looked up)
chain: B1 chain with Q77H

Numbering of substitutions follows the chain as printed.

The target of the first assay is T1, Murine OPG-Fc. The experiment in a line: SPR. (Surface plasmon resonance follows binding to a sensor surface in real time, without labels.)
As for B1, the Kd was determined as 0.0043 ± 0.0016 nM, the koff came to 7e-05 s⁻¹ and the kon was 1.8e+07 M⁻¹ s⁻¹.

As to B2, the Kd was 0.143 ± 0.0446 nM, the koff was 0.00146 s⁻¹ and the kon was 1.1e+07 M⁻¹ s⁻¹.

For the molecule B3, the Kd was determined as 0.0213 ± 0.0082 nM, the off-rate constant (koff) worked out at 0.00022 s⁻¹ and the kon came to 1.1e+07 M⁻¹ s⁻¹.

As for B4, the Kd came out at 0.0233 ± 0.0045 nM, the koff turned out to be 0.00031 s⁻¹ and the kon turned out to be 1.4e+07 M⁻¹ s⁻¹.

On to B5, for which the Kd was determined as 0.0205 ± 0.0022 nM, the koff came to 0.00033 s⁻¹ and the kon was determined as 1.6e+07 M⁻¹ s⁻¹.

Take B6: the Kd was 0.112 ± 0.0244 nM, the koff turned out to be 0.0007 s⁻¹ and the kon is 6e+06 M⁻¹ s⁻¹.

For the molecule B7, the Kd was 0.0207 ± 0.0037 nM, the koff was 0.00031 s⁻¹ and the association rate constant (kon) came to 1.5e+07 M⁻¹ s⁻¹.

B8: the Kd stood at 0.0166 ± 0.0016 nM, the koff amounted to 0.00022 s⁻¹ and the association rate constant (kon) is 1.3e+07 M⁻¹ s⁻¹.

Another assay concerns the target T2, Murine RANK-Fc. Description: SPR.
The molecule B1 came in with a Kd of 0.0119 ± 0.0015 nM, a koff of 0.0001 s⁻¹ and a kon of 8.4e+06 M⁻¹ s⁻¹.

As to B2, the Kd stood at 0.119 ± 0.0105 nM, the dissociation rate constant (koff) came out at 0.00095 s⁻¹ and the on-rate constant (kon) amounted to 8e+06 M⁻¹ s⁻¹.

As to B3, the Kd came out at 0.0198 ± 0.006 nM, the off-rate constant (koff) was determined as 0.00012 s⁻¹ and the kon was determined as 6.1e+06 M⁻¹ s⁻¹.

For the molecule B4, binding was characterised by a dissociation constant (Kd) of 0.0249 ± 0.0051 nM, the koff worked out at 0.00018 s⁻¹ and the on-rate constant (kon) amounted to 7e+06 M⁻¹ s⁻¹.

B5 gave a Kd of 0.0215 ± 0.0066 nM, a koff of 0.00018 s⁻¹ and an on-rate constant (kon) of 8.9e+06 M⁻¹ s⁻¹.

The molecule B6 came in with a Kd of 0.015 ± 0.0032 nM, a koff of 9e-05 s⁻¹ and a kon of 6.4e+06 M⁻¹ s⁻¹.

For the molecule B7, binding was characterised by a dissociation constant (Kd) of 0.0221 ± 0.0029 nM, the koff is 0.00017 s⁻¹ and the kon was determined as 7.9e+06 M⁻¹ s⁻¹.

Turning to B8, the Kd worked out at 0.0187 ± 0.0028 nM, the off-rate constant (koff) is 0.00013 s⁻¹ and the kon is 6.7e+06 M⁻¹ s⁻¹.

The target in the next assay is T1, Murine OPG-Fc. The experiment in a line: ELISA. A general note: ELISA stands for enzyme-linked immunosorbent assay.
For B6, the “binding relative to RANKL_WT” value stood at 25%.

One may read the Kd as the free concentration of one partner at which half of the binding sites on the other are occupied at equilibrium, for simple one-to-one binding. What is called koff is the rate constant with which the complex falls apart. A lower koff goes with slow dissociation. What is called kon is the rate constant with which the complex forms. High values mean faster complex formation, low ones slower complex formation.
